Data published in paper PMC12872393, “NCOA4 initiates ferritinophagy by avidly binding GATE16 using two short linear interaction motifs” (Life Science Alliance, 2026).

Assays:
[1] = test system: ferritin heavy chain (FTH1); assay: Western blot assay of ferritin degradation (ferritinophagy) in HeLa cell lines; type: cell-based; details: EGFP-fused constructs stably integrated in NCOA4Δ HeLa cells; 40 μM FAC 24 h then 50 μM DFO 24 h; quantitative Western blot FTH1/tubulin, triplicate
From the text: Stably integrated NCOA4^383−522 cell lines were generated via retroviral transfection of the relevant NCOA4^383−522 construct in a CMV-enhancer–bearing pMRX plasmid (84573; Addgene) into NCOA4Δ HeLa cells (a gift from Prof. M. Poli, University of Brescia, Italy) ([Gryzik et al, 2021]). In this pMRX plasmid, EGFP was fused to the N terminus of NCOA4^383−522 and its mutants with a 13-residue GS linker. HeLa cells were transfected and selected as described previously ([Sena-Esteves & Gao, 2018]).
After 24-h, all media were aspirated and replaced with either DMEM or DMEM supplemented with 40 μM ferric ammonium citrate (FAC). After an additional 24 h, all media were aspirated and replaced with either DMEM or DMEM supplemented with 50 μM deferoxamine (DFO). After an additional 24-h incubation, cells were trypsinized (200 μl, 5 min, 37°C), pelleted via centrifugation at 100g for 1 min, resuspended in Dulbecco’s PBS (D8537; Sigma-Aldrich), and pelleted as above before undergoing flash freezing in liquid nitrogen and storage at −80°C.
Frozen cell pellets were resuspended in 100 μl 4X Laemmli buffer with Halt protease and phosphatase inhibitor (78440; Thermo Fisher Scientific) and lysed with a 29-gauge syringe. […] Ferritin levels were then measured by densitometry in FIJI ([Schindelin et al, 2012]) and normalized to tubulin intensity measured as above.

[2] = test system: lysosomes (LAMP1); assay: Immunofluorescence colocalization of GFP-NCOA4^383−522 with lysosomes (LAMP1); type: cell-based; details: GFP-fused constructs in NCOA4Δ HeLa cells, 50 μM DFO 24 h; anti-GFP and anti-LAMP1; area of overlap per nucleus and Manders' coefficient
Description: For colocalization assays, NCOA4^383−522 cell lines were seeded on glass coverslips in a 12-well cell culture plate in DMEM as above. After 24 h, media were aspirated and replaced with DMEM supplemented with 50 μM DFO, and cells were incubated for an additional 24 h. Cells were then fixed with 4% paraformaldehyde in PBS (150 mM NaCl, 2.7 mM KCl, 10 mM Na2HPO4, 1.8 mM KH2PO4, pH 8.0) for 15 min at RT, quenched with 100 mM glycine in PBS for 10 min, and washed three times with PBS. Cells were next permeabilized with 0.5% Triton X-100 in PBS for 10 min, washed once with PBS, and blocked for 30 min in 2% BSA in PBS. Slides were next incubated in anti-GFP mouse antibody (sc-9996; Santa Cruz) diluted 1:200, anti-LAMP1 rabbit antibody (9091T; Cell Signaling) diluted 1:200, and Hoechst stain (H3570; Invitrogen) diluted 1:1,000, in 2% BSA in PBS for 1 h. […]
All image analysis was conducted in FIJI ([Schindelin et al, 2012]). […] The overlapping regions were then measured, and the area per nucleus was recorded. […] For all images, threshold values were manually chosen for the pink and green channels, and Manders’ value, which calculates the fraction of the pink signal that overlaps green signal, was recorded.

B1: NCOA4^383-522: NCOA4 fragment of residues 383–522; biotinylated AviTag-His6-NCOA4-MBP in vitro, EGFP fusion in cells (protein)
chain: SMVTEDWLVQNHQDPCKVEEVCRANEPCTSFAECVCDENCEKEALYKWLLKKEGKDKNGMPVEPKPEPEKHKDSLNMWLCPRKEVIEQTKAPKAMTPSRIADSFQVIKNSPLSEWLIRPPYKEGSPKEVPGTEDRAGKQK
modifications: biotin on the AviTag (BirA co-expressed); left off: AviTag, N-terminal, kept | His6, N-terminal, kept | MBP, C-terminal, kept
notes: NCOA4 fragment of residues 383–522; biotinylated AviTag-His6-NCOA4-MBP in vitro, EGFP fusion in cells
[1]
  ferritin degradation upon iron chelation with DFO (in words): ferritin degradation was robust
[2]
  NCOA4:lysosome colocalization (in words): significant colocalization
